Bridges are numbered along the chain shown (N, C = ends).
B1: 7 kDa RHAMM: mini protein of 62 amino acids derived from the C-terminus of full-length RHAMM, contains both HABDs; reference for α-helical character (protein, listed as Mus musculus)
chain: RDSYAQLLGHQNLKQKIKHVVKLKDENSQLKSEVSKLRSQLVKRKQNELRLQGELDKALGIR

Columns and labels:
[1] = Direct HA-binding ELISA of biotinylated peptides on HA coated plates (Example 4); design: key to HA binding: absorbance (color) read at 450 nm; details: for HA binding: as repeated in tables 16, 18, 20; for HA direct binding (OD): optical density, summary tables 15, 17, 19
Protocol: Each of these peptides was biotinylated at its amino-terminus, and an AEEA spacer was included to separate the peptide sequence from the biotin molecule.
HA coated plates were purchased (ECHELON). Peptides were dissolved in 2 mM PBS to constant molarity, aliquoted and stored at −20° C. until used in assays. 7 kDa biotin-labeled RHAMM (SEQ ID NO: 1) was synthesized and used as a positive control in these assays. Biotin labeled peptides were added to the HA coated wells (n=3 replicates/peptide) at either 0.8 or 0.08 μM and then incubated with shaking overnight at 4° C. Wells were washed free of excess unbound peptides using 200 μl PBS (4 times). 100 μl of Streptavidin-HRP was then added to each well and the plate was incubated at room temperature for 1 hr. The plate was then washed with 200 μl PBS/well 4 times and TMB Liquid Substrate System for ELISA (Sigma) was added to each well, incubated for 5-10 min at room temperature and color read at 450 nm Plate Reader (BioTek, SYNERGY H4, Hybrid Reader).
Direct HA-binding results for the biotinylated equivalents of compounds 132 and 150-161 are show in FIG. 39, and results for compounds 265-268 and 275-278 are shown in FIG. 40.

[2] = Circular dichroism (CD) spectroscopy of linear and stapled peptides in water or 40% TFE/water (Example 3); format: physicochemical; details: for [0]208 mean residue ellipticity: λ = 208 nm; for [0]222 mean residue ellipticity: λ = 222 nm
Protocol: CD spectra were obtained on a Jasco J-810 spectropolarimeter and recorded in the range of 180-260 nm. Peptide solutions were prepared with a 0.1M phosphate buffer solution to a concentration of 0.5 mM. The measurements were performed in quartz cuvettes with a path length of 1 mm and a scanning speed of 10-50 nm/min. Five individual data points were averaged by the instrument in order to obtain the reported CD spectrum. The measurements were carried out at 20° C. A blank solution of 0.1M phosphate buffer solution was run before every measurement in order to baseline correct for any UV-interference observed from the buffer.
CD data for the 14- and 15-mer peptides containing HABD2 (VSKLRSQLVKRKQN, SEQ ID NO: 2) and HABD1 (NLKQKIKHVVKLKDE, SEQ ID NO: 4) and cyclized derivatives thereof in water or 40% TFE/water are provided below in Tables 8 (water) and 9 (40% TFE/water). Tables 8 and 9 provide the mean residue ellipicity ([θ] deg cm^2 dmol^−1) at λ=222 and 208 nm for each peptide and ratios of ellipticities at 222/208. Each of the peptides was acetylated at its amino terminus and amidated at its carboxy terminus.
CD data for linear peptides having the sequences […] (SEQ ID NO: 5) and […] (SEQ ID NO: 6) and cyclized derivatives thereof in water or 40% TFE/water are provided below in Tables 12 (water) and 13 (40% TFE/water). Tables 12 and 13 provide the mean residue ellipicity ([0] deg cm^2 dmol^−1) at λ=222 and 208 nm for each peptide and ratios of ellipticities at 222/208. Each of the peptides was acetylated at its amino terminus and amidated at its carboxy terminus.
Circular Dichroism (CD) spectroscopy is a tool that is used to study the secondary structure characteristics of a compound. Peptides and proteins can fold into organized structures, such as alpha helices and beta sheets, which are the result of complex hydrogen bonding and other interactions between amino acid side chains, as well as adopt a random coil formation, which lacks much of the organization of the other two structures. The CD spectrum of an alpha helix is characterized by two local minima at 208 nm and 222 nm. The ratio of the values of the molar ellipticities at these wavelengths ([θ]222/[θ]208) is a strong indication of the relative helicity of a compound; a compound is more helical when the ratio of these two values approaches 1.0. Synthetic constraints introduced to the peptide backbone can force a peptide chain to increase its helical character. These constraints can be introduced by staples, of varying types, which allow cyclization of the peptide backbone to take place.

[3] = Circular dichroism (CD) spectroscopy of HABD2 peptides in Milli-Q water (Example 1); format: physicochemical; details: for [θ]222/[θ]208 ratio of ellipticities / fH fraction helicity / Molar ellipticity [θ]192 / Molar ellipticity [θ]208 / Molar ellipticity [θ]222: 0.5 mM in Milli-Q water; for fH fraction helicity: equations 1-3; for α-helical character by CD (in words): Milli-Q water; for Molar ellipticity [θ]192: λ = 192 nm; for Molar ellipticity [θ]208: λ = 208 nm; for Molar ellipticity [θ]222: λ = 222 nm
From the text: In addition, a large mean residue ellipticity indicates greater α-helical character. […] This was predicted to be the case, as there is a lack of contributing residues that might form a hydrophobic core, thereby helping to stabilize the secondary structure of the linear peptide. For this reason, bridges were introduced into the peptides. […] The differences in α-helicity induced by the bridges placed at different points within each peptide may be due to the differences in their primary sequences. Specifically, two amino acids (at the i and i+4 position) have to be replaced in order to form the lactam bridge. In compound 133, leucine was replaced at both the i and i+4 position; while in compound 136, glutamine was replaced at the i position and aspartic acid was replaced at i+4. Leucine and glutamine are proposed to be helix-stabilizing residues.
A larger portion of the RHAMM protein was used as the reference for α-helical character of the truncated peptides. 7 kDa RHAMM (SEQ ID NO: 1) is a mini protein that is composed of 62 amino acids, which was derived from the C-terminus of the full-length RHAMM sequence. It contains both HABDs, and is predicted to have almost complete α-helix shape, similar to that of native full-length RHAMM.
A peptide's α-helicity can be quantified using equations 1-3: fH=[([θ]obs222−[θ]c)/([θ]max222−[θ]c)] (Equation 1) [θ]c=2220+53T (Equation 2) [θ]max222=(−44000+250T)(1−k/N) (Equation 3) where fH is the ratio of the average number of helical hydrogen bonds divided by the total number of hydrogen bonds that can be found in a peptide, T is the temperature in degrees Celsius, N is the number of residues in the peptide and k is a constant of ellipticity when 100% of the structure is α-helical (3 for carboxyamidated peptides).
Milli-Q water was chosen as the solvent in which all peptides would be dissolved for CD spectroscopy, as it is a UV invisible solvent, which is a requirement of the analytical technique, and it represents RHAMM's natural environment in the body. Luo and Baldwin [18] stated that when peptides are taken out of their native protein sequence, they usually show little to no helical formation in water alone. For this reason, TFE/H2O solutions are commonly used in studies to observe the α-helix characteristics, and may improve the helical nature of the peptides observed here. However, a helix-stabilizing solvent, such as TFE, would not be as contextually relevant, as there are no solvent stabilizing effects in the body. Thus use of TFE would tend to produce skewed results and not be representative of the peptide's natural behavior.

[4] = [θ]222/[θ]208 ratio in water, summary tables 15, 17, 19
[5] = as repeated in tables 16, 18, 20

| HA binding [1] | HA direct binding (OD) [1] [OD] | Molecule | [θ]222/[θ]208 ratio of ellipticities [2, 4] | [θ]222/[θ]208 ratio of ellipticities [2, 5] | [0]222/[0]208 ratio of ellipticities ([2]; in 40% TFE/water) | [0]222/[0]208 ratio of ellipticities ([2]; in water) | [0]208 mean residue ellipticity ([2]; in 40% TFE/water) [deg cm^2 dmol^−1] | [0]208 mean residue ellipticity ([2]; in water) | [0]222 mean residue ellipticity ([2]; in 40% TFE/water) [deg cm^2 dmol^−1] | [0]222 mean residue ellipticity ([2]; in water) [deg cm^2 dmol^−1] | [θ]222/[θ]208 ratio of ellipticities [3] | fH fraction helicity [3] | α-helical character by CD (in words) [3] | Molar ellipticity [θ]192 [3] | Molar ellipticity [θ]208 [3] | Molar ellipticity [θ]222 [3] |
| --- | --- | --- | --- | --- | --- | --- | --- | --- | --- | --- | --- | --- | --- | --- | --- | --- |
| 0.045 | 0.045 | Ac-(cyclo-5,9)-VSKL[KSQLE]KRKQN-NH2 (Ac-VSKLKSQLEKRKQN-NH2; lactam 5-9; SMILES CC(=O)N[C@H](C(=O)N[C@@H](CO)C(=O)N[C@@H](CCCCN)C(=O)N[C@@H](CC(C)C)C(=O)N[C@H]1CCCCNC(=O)CC[C@@H](C(=O)N[C@@H](CCCCN)C(=O)N[C@@H](CCCNC(=N)N)C(=O)N[C@@H](CCCCN)C(=O)N[C@@H](CCC(N)=O)C(=O)N[C@@H](CC(N)=O)C(N)=O)NC(=O)[C@H](CC(C)C)NC(=O)[C@H](CCC(N)=O)NC(=O)[C@H](CO)NC1=O)C(C)C) [Compound 154] | 0.20 | 0.20 | 0.75 | 0.20 | -1.18E+04 | -4,95E+03 deg cm^2 dmol^−1 | -8.78E+03 | -9.74E+02 | – | – | – | – | – | – |
| – | – | H-(cyclo-7,11)-VSKLRS[ELVKK]KQN-NH2 (H-VSKLRSELVKKKQN-NH2; lactam 7-11; SMILES CC(C)C[C@H](NC(=O)[C@H](CCCCN)NC(=O)[C@H](CO)NC(=O)[C@@H](N)C(C)C)C(=O)N[C@@H](CCCNC(=N)N)C(=O)N[C@@H](CO)C(=O)N[C@H]1CCC(=O)NCCCC[C@@H](C(=O)N[C@@H](CCCCN)C(=O)N[C@@H](CCC(N)=O)C(=O)N[C@@H](CC(N)=O)C(N)=O)NC(=O)[C@H](CCCCN)NC(=O)[C@H](C(C)C)NC(=O)[C@H](CC(C)C)NC1=O) [Compound 136] | – | – | – | – | – | – | – | – | 0.30 | 0.14 | did not seem to stabilize | 1437.80 deg cm^2 dmol^−1 residue^−1 | −5084.93 deg cm^2 dmol^−1 residue^−1 | −1568.07 deg cm^2 dmol^−1 residue^−1 |
| – | – | H-(cyclo-5,9)-VSKL[ESQLK]KRKQN-NH2 (H-VSKLESQLKKRKQN-NH2; lactam 5-9; SMILES CC(C)C[C@@H]1NC(=O)[C@H](CCC(N)=O)NC(=O)[C@H](CO)NC(=O)[C@@H](NC(=O)[C@H](CC(C)C)NC(=O)[C@H](CCCCN)NC(=O)[C@H](CO)NC(=O)[C@@H](N)C(C)C)CCC(=O)NCCCC[C@@H](C(=O)N[C@@H](CCCCN)C(=O)N[C@@H](CCCNC(=N)N)C(=O)N[C@@H](CCCCN)C(=O)N[C@@H](CCC(N)=O)C(=O)N[C@@H](CC(N)=O)C(N)=O)NC1=O) [Compound 134] | – | – | – | – | – | – | – | – | 0.57 | 0.22 | increase in α-helix structure | 1002.14 deg cm^2 dmol^−1 residue^−1 | −7685.97 deg cm^2 dmol^−1 residue^−1 | −4403.89 deg cm^2 dmol^−1 residue^−1 |
| 0.05 | 0.05 | Ac-(cyclo-6,10)-VSKLR[KQLVE]RKQN-NH2 (Ac-VSKLRKQLVERKQN-NH2; lactam 6-10; SMILES CC(=O)N[C@H](C(=O)N[C@@H](CO)C(=O)N[C@@H](CCCCN)C(=O)N[C@@H](CC(C)C)C(=O)N[C@@H](CCCNC(=N)N)C(=O)N[C@H]1CCCCNC(=O)CC[C@@H](C(=O)N[C@@H](CCCNC(=N)N)C(=O)N[C@@H](CCCCN)C(=O)N[C@@H](CCC(N)=O)C(=O)N[C@@H](CC(N)=O)C(N)=O)NC(=O)[C@H](C(C)C)NC(=O)[C@H](CC(C)C)NC(=O)[C@H](CCC(N)=O)NC1=O)C(C)C) [Compound 155] | 0.37 | 0.37 | 0.75 | 0.37 | -1.71E+04 | -5.30E+03 deg cm^2 dmol^−1 | -1.28E+04 | – | – | – | – | – | – | – |
| – | – | B1 | – | – | – | – | – | – | – | – | 0.46 | 0.18 | – | 1839.66 deg cm^2 dmol^−1 residue^−1 | −7553.76 deg cm^2 dmol^−1 residue^−1 | −4046.60 deg cm^2 dmol^−1 residue^−1 |

Reference: US10562935B2, “Stapled peptides and uses thereof” (London Health Sciences Centre Research Inc., priority 2015, dated 2020)
